Assay results from publication PMC2849990 (Structure (London, England : 1993), 2008).

T1: human pyruvate dehydrogenase (E1p) component, heterotetramer alpha2beta2 (Homo sapiens, UniProt P08559+P11177)
T1 sequence (P08559 30-390): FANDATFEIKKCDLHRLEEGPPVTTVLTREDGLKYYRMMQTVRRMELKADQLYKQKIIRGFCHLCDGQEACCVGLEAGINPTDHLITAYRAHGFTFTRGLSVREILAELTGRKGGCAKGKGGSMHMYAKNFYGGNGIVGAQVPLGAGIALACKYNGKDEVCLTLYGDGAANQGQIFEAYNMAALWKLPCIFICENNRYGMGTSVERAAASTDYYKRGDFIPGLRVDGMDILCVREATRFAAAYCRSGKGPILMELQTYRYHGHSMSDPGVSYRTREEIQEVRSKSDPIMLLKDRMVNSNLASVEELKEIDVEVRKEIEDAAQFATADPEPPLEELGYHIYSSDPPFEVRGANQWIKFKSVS
T1 sequence (P11177 31-359): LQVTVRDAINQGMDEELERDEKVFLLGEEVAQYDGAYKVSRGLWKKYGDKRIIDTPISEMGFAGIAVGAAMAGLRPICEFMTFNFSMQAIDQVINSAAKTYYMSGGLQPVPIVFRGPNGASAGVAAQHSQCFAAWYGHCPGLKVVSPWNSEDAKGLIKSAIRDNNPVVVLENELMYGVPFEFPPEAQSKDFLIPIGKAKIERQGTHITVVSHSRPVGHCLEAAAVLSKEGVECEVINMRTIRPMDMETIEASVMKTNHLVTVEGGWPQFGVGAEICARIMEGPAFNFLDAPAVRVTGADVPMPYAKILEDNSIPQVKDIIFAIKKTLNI

T2: human pyruvate dehydrogenase (E1p) component, heterotetramer alpha2beta2 (Homo sapiens, UniProt P08559+P11177, P08559:Y118F)
T2 sequence (P08559 30-390 Y118F): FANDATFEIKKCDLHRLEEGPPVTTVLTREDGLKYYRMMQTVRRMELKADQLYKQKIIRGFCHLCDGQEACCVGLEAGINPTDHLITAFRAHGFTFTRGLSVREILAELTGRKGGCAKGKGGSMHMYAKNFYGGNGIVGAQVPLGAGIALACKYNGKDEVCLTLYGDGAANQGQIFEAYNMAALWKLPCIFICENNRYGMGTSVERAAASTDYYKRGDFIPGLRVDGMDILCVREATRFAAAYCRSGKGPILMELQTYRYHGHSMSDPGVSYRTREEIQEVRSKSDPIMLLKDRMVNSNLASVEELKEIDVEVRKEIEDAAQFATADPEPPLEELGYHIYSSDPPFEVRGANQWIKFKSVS
T2 sequence (P11177 31-359): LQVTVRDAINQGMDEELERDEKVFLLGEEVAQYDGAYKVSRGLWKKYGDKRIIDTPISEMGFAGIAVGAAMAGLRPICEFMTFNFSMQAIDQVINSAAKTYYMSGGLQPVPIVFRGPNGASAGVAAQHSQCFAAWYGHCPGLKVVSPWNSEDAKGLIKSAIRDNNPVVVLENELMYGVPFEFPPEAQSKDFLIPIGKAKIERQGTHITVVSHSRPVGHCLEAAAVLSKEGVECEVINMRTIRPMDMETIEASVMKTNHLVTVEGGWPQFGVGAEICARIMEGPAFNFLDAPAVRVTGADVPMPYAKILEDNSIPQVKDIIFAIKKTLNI

T3: E1p-α subunit of S1-E1p (S271A-α, S203A-α) (human, UniProt P08559 30-390, S271A-α | S203A-α)
T3 sequence: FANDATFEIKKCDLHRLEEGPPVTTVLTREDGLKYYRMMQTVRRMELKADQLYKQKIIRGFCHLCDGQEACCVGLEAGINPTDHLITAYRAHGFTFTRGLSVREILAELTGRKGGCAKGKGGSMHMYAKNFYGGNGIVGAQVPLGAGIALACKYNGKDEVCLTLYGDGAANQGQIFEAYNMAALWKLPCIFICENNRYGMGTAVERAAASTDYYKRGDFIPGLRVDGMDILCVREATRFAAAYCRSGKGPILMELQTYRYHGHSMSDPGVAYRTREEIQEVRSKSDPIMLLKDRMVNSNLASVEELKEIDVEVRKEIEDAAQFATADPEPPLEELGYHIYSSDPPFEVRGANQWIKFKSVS

T4: E1p-α subunit of Y89F-α mutant E1p (human, UniProt P08559 30-390, Y89F-α)
T4 sequence: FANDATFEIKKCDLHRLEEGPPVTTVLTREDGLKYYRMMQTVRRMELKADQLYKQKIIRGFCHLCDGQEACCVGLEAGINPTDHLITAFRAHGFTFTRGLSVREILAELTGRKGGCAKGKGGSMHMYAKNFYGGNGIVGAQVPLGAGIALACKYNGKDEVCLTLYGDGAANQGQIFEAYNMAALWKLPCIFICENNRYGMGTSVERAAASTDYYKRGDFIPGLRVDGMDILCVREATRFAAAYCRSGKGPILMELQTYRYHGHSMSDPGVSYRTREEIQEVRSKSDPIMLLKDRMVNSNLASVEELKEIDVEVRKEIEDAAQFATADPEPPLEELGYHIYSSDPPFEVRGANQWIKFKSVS

T5: E1p-α subunit of wild-type human E1p (human, UniProt P08559 30-390)
T5 sequence: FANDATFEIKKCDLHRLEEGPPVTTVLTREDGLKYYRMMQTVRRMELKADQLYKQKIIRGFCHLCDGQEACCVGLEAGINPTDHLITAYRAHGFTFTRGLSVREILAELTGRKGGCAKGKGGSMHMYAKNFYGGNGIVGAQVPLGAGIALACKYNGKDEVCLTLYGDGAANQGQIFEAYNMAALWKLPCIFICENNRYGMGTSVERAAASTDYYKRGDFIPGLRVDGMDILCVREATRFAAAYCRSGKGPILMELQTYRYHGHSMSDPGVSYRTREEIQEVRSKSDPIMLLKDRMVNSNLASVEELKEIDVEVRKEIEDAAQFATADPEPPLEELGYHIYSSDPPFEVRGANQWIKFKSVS


Tests used:
[1] = biological target: T1, human pyruvate dehydrogenase (E1p) component, heterotetramer alpha2beta2; test: tryptophan fluorescence quenching; assay type: binding
[2] = biological target: T2, human pyruvate dehydrogenase (E1p) component, heterotetramer alpha2beta2; test: tryptophan fluorescence quenching; assay type: binding
[3] = biological target: T3, E1p-α subunit of S1-E1p (S271A-α, …); test: crystal structure
[4] = biological target: T4, E1p-α subunit of Y89F-α mutant E1p; test: crystal structure
[5] = biological target: T5, E1p-α subunit of wild-type human E1p; test: crystal structure

| Kd [1] | Kd [2] | binding result [3] | binding result [4] | binding result [5] | Molecule |
| --- | --- | --- | --- | --- | --- |
| 0.11 ± 0.01 µM | 50.2 ± 4.6 µM | – | – | – | Cc1ncc(C[n+]2csc(CCO[P@](=O)(O)OP(=O)(O)O)c2C)c(N)n1 [ThDP] |
| – | – | binds | binds | binds | E1p-β subunit of human E1p (natural protein) LQVTVRDAINQGMDEELERDEKVFLLGEEVAQYDGAYKVSRGLWKKYGDKRIIDTPISEMGFAGIAVGAAMAGLRPICEFMTFNFSMQAIDQVINSAAKTYYMSGGLQPVPIVFRGPNGASAGVAAQHSQCFAAWYGHCPGLKVVSPWNSEDAKGLIKSAIRDNNPVVVLENELMYGVPFEFPPEAQSKDFLIPIGKAKIERQGTHITVVSHSRPVGHCLEAAAVLSKEGVECEVINMRTIRPMDMETIEASVMKTNHLVTVEGGWPQFGVGAEICARIMEGPAFNFLDAPAVRVTGADVPMPYAKILEDNSIPQVKDIIFAIKKTLNI |
